Results reported in the supplement of paper PMC10065799, “High-throughput profiling of sequence recognition by tyrosine kinases and SH2 domains using bacterial peptide display” (eLife, 2023).
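Further: 11-residue human phosphosite peptides and single-mutation variants displayed on the E. coli surface, counted by deep sequencing, each peptide's frequency after selection divided by its frequency in the unselected input library; frequency after pTyr selection over input frequency; kinase dosed for 20-30% of maximal phosphorylation in three min.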

What follows are sequences tested on c-Src (assay: phosphorylation enrichment, bacterial display (enrichment ratio); higher = better substrate or ligand; peptides without Tyr show the background).
VTAALYGCLYE [BTD_Y536_R538C] gave a phosphorylation enrichment of 4.26.
FSKQIYKGMVA [PCDH15_Y931_R929Q] was tested, and the phosphorylation enrichment was 0.365.
In the case of QKPLDYYRVNL [GALE_Y104], the phosphorylation enrichment is reported as 1.85.
FDDGKYVFVVT [RPS6KA3_Y488_YF] gave a phosphorylation enrichment of 0.507.
NGQALYAACQT [XDH_Y1092_V1091L] gave a phosphorylation enrichment of 3.35.
ISRASYYRKGG [ALK_Y1282_Y1278S] was tested, and the phosphorylation enrichment was 0.509.
For CTAIHYNFMCN [TP53_Y234_T231A_YF], the phosphorylation enrichment was 0.525.
VGTKRYMAPEV [ACVRL1_Y375] gave a phosphorylation enrichment of 0.373.
In the case of RTLIRYANLGN [BEST1_Y131], the phosphorylation enrichment is reported as 0.685.
For TVSTGYTQPQP [SARG_Y259_R258G], the phosphorylation enrichment was 0.479.
Sequence ATCKAYGQALA [TKT_Y321_R318C] has a phosphorylation enrichment of 0.493.
TVSRPYSFIEF [SEC22B_Y110] showed a phosphorylation enrichment of 3.15.
PQAVTYAKVKH [LILRB4_Y360] gave a phosphorylation enrichment of 0.708.
For RIVEIYSRRLR [GCH1_Y175_Q180R], the phosphorylation enrichment was 0.81.
Sequence DEEPPDRGPFC [SASH1_Y551_Y551D] has a phosphorylation enrichment of 0.513.
LVMFISAIFGM [SCN1A_Y1684_Y1684S] gave a phosphorylation enrichment of 0.922.
In the case of ANNEYYFRVCA, the phosphorylation enrichment is reported as 0.526.
VKRNRYKDILP [PTPN12_Y64_K61R] showed a phosphorylation enrichment of 0.628.
Work on LSIWPYLQKID [MFSD8_Y63_M58L] yielded a phosphorylation enrichment of 0.686.
For FGPPQYNMQFS [ERBB2IP_Y977_I979M_YF], the phosphorylation enrichment was 0.372.
With EGWQVYRLGAR [MISP_Y95] the phosphorylation enrichment was 4.5.
With HPHECYAKVFD [ALB_Y394_D389H] the phosphorylation enrichment was 0.659.
Work on SHNELYFEAAE [VANGL1_Y344_E347A_YF] yielded a phosphorylation enrichment of 0.522.
For VNKLVYENING [FRS2_Y306], the phosphorylation enrichment was 1.78.
With KGLKVYVNGTL [ADGRD1_Y183_E178K] the phosphorylation enrichment was 0.406.
GSERDYTYDEL [EIF2S2_Y174_E177D] showed a phosphorylation enrichment of 0.766.
KINKMYSDRAM showed a phosphorylation enrichment of 0.345.
SGSIHYSHVPR [GLB1_Y57_R59H] gave a phosphorylation enrichment of 0.383.
With SRDDFYETIAM [NPY1R_Y347_D346Y_YF] the phosphorylation enrichment was 1.06.
FLENFYDLEKD [MMP3_Y42_K45E_YF] gave a phosphorylation enrichment of 2.23.
TTPAVYARVAK [CTRB2_Y246] was tested, and the phosphorylation enrichment was 2.23.
For RSRSPYSSRHS [CDK13_Y415], the phosphorylation enrichment was 0.446.
Sequence YMRGMYFRMTD [PLA2G6_Y541_K545T] has a phosphorylation enrichment of 0.427.

What follows are sequences tested against MERTK (UniProt Q12866) in the same assay as above.
Chain of MERTK (Q12866 whole entry, looked up): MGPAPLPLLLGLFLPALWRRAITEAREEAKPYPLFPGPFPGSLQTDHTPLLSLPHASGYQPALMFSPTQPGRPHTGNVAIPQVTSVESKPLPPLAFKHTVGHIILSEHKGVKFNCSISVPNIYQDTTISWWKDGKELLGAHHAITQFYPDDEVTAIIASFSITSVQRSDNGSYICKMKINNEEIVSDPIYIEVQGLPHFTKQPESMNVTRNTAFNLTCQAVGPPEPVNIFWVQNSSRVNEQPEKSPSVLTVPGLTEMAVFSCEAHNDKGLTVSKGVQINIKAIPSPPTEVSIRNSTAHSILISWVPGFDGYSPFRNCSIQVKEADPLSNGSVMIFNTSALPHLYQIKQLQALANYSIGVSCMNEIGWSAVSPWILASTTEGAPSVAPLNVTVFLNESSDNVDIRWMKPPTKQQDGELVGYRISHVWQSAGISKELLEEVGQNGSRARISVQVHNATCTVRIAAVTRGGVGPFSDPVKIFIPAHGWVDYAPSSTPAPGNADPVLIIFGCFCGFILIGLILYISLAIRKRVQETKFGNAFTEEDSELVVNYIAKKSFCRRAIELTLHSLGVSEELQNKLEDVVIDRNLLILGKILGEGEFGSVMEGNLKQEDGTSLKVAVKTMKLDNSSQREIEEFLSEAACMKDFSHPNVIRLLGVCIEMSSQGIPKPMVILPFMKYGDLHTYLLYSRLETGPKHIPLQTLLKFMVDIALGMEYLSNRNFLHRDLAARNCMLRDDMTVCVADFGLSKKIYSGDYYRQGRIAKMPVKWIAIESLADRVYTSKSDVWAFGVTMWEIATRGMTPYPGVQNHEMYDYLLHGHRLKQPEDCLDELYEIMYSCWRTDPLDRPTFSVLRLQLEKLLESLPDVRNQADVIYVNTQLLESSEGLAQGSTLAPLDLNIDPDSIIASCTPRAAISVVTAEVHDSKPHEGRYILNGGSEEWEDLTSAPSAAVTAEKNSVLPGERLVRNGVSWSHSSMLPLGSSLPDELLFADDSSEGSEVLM
VTAALYGCLYE [BTD_Y536_R538C] showed a phosphorylation enrichment of 2.11.
Work on FSKQIYKGMVA [PCDH15_Y931_R929Q] yielded a phosphorylation enrichment of 0.346.
In the case of QKPLDYYRVNL [GALE_Y104], the phosphorylation enrichment is reported as 0.79.
With FDDGKYVFVVT [RPS6KA3_Y488_YF] the phosphorylation enrichment was 0.474.
NGQALYAACQT [XDH_Y1092_V1091L] was tested, and the phosphorylation enrichment was 6.34.
For ISRASYYRKGG [ALK_Y1282_Y1278S], the phosphorylation enrichment was 0.576.
In the case of CTAIHYNFMCN [TP53_Y234_T231A_YF], the phosphorylation enrichment is reported as 0.38.
Work on VGTKRYMAPEV [ACVRL1_Y375] yielded a phosphorylation enrichment of 0.389.
In the case of RTLIRYANLGN [BEST1_Y131], the phosphorylation enrichment is reported as 0.706.
Work on TVSTGYTQPQP [SARG_Y259_R258G] yielded a phosphorylation enrichment of 0.371.
Work on ATCKAYGQALA [TKT_Y321_R318C] yielded a phosphorylation enrichment of 0.419.
TVSRPYSFIEF [SEC22B_Y110] gave a phosphorylation enrichment of 6.03.
PQAVTYAKVKH [LILRB4_Y360] showed a phosphorylation enrichment of 0.339.
In the case of RIVEIYSRRLR [GCH1_Y175_Q180R], the phosphorylation enrichment is reported as 0.773.
DEEPPDRGPFC [SASH1_Y551_Y551D] showed a phosphorylation enrichment of 0.465.
LVMFISAIFGM [SCN1A_Y1684_Y1684S] was tested, and the phosphorylation enrichment was 0.722.
ANNEYYFRVCA showed a phosphorylation enrichment of 0.439.
With VKRNRYKDILP [PTPN12_Y64_K61R] the phosphorylation enrichment was 0.553.
For LSIWPYLQKID [MFSD8_Y63_M58L], the phosphorylation enrichment was 0.6.
FGPPQYNMQFS [ERBB2IP_Y977_I979M_YF] gave a phosphorylation enrichment of 0.376.
EGWQVYRLGAR [MISP_Y95] gave a phosphorylation enrichment of 0.423.
Sequence HPHECYAKVFD [ALB_Y394_D389H] has a phosphorylation enrichment of 0.764.
For SHNELYFEAAE [VANGL1_Y344_E347A_YF], the phosphorylation enrichment was 0.543.
Sequence VNKLVYENING [FRS2_Y306] has a phosphorylation enrichment of 1.64.
Sequence KGLKVYVNGTL [ADGRD1_Y183_E178K] has a phosphorylation enrichment of 0.431.
GSERDYTYDEL [EIF2S2_Y174_E177D] gave a phosphorylation enrichment of 0.424.
With KINKMYSDRAM the phosphorylation enrichment was 0.423.
SGSIHYSHVPR [GLB1_Y57_R59H] was tested, and the phosphorylation enrichment was 0.425.
SRDDFYETIAM [NPY1R_Y347_D346Y_YF] was tested, and the phosphorylation enrichment was 0.826.
FLENFYDLEKD [MMP3_Y42_K45E_YF] showed a phosphorylation enrichment of 0.516.
With TTPAVYARVAK [CTRB2_Y246] the phosphorylation enrichment was 0.529.
RSRSPYSSRHS [CDK13_Y415] gave a phosphorylation enrichment of 0.625.
YMRGMYFRMTD [PLA2G6_Y541_K545T] gave a phosphorylation enrichment of 0.773.

These sequences were tested against FGFR3 (UniProt P22607) in the same assay as above.
Chain of FGFR3 (P22607 whole entry, looked up): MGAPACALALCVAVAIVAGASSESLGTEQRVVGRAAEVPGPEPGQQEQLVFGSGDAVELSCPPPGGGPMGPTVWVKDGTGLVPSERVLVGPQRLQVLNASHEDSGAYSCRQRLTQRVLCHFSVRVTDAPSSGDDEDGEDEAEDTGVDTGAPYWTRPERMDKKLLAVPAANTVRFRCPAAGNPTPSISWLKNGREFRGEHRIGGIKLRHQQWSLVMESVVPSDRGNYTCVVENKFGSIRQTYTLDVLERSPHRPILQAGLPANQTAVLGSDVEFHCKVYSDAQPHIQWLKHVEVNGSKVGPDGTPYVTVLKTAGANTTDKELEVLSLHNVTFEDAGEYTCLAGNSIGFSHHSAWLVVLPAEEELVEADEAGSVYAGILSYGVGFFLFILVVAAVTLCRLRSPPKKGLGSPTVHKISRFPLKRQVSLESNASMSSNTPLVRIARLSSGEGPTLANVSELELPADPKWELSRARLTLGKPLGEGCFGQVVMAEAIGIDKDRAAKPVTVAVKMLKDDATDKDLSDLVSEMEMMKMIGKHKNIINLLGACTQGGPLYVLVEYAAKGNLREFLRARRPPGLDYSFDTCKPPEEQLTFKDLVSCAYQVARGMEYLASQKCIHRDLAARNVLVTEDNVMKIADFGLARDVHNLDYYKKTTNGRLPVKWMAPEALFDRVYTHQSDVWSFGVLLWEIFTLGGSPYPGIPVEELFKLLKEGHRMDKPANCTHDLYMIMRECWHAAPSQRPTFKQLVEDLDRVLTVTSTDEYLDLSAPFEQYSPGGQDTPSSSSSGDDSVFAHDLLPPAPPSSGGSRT
Work on VTAALYGCLYE [BTD_Y536_R538C] yielded a phosphorylation enrichment of 0.825.
Sequence FSKQIYKGMVA [PCDH15_Y931_R929Q] has a phosphorylation enrichment of 0.432.
Sequence QKPLDYYRVNL [GALE_Y104] has a phosphorylation enrichment of 14.3.
Sequence FDDGKYVFVVT [RPS6KA3_Y488_YF] has a phosphorylation enrichment of 0.911.
NGQALYAACQT [XDH_Y1092_V1091L] showed a phosphorylation enrichment of 0.562.
Work on ISRASYYRKGG [ALK_Y1282_Y1278S] yielded a phosphorylation enrichment of 0.532.
CTAIHYNFMCN [TP53_Y234_T231A_YF] showed a phosphorylation enrichment of 0.614.
For VGTKRYMAPEV [ACVRL1_Y375], the phosphorylation enrichment was 0.446.
RTLIRYANLGN [BEST1_Y131] was tested, and the phosphorylation enrichment was 0.654.
Work on TVSTGYTQPQP [SARG_Y259_R258G] yielded a phosphorylation enrichment of 0.629.
In the case of ATCKAYGQALA [TKT_Y321_R318C], the phosphorylation enrichment is reported as 0.573.
TVSRPYSFIEF [SEC22B_Y110] showed a phosphorylation enrichment of 2.19.
In the case of PQAVTYAKVKH [LILRB4_Y360], the phosphorylation enrichment is reported as 0.334.
RIVEIYSRRLR [GCH1_Y175_Q180R] gave a phosphorylation enrichment of 0.549.
Sequence DEEPPDRGPFC [SASH1_Y551_Y551D] has a phosphorylation enrichment of 0.679.
In the case of LVMFISAIFGM [SCN1A_Y1684_Y1684S], the phosphorylation enrichment is reported as 1.46.
ANNEYYFRVCA gave a phosphorylation enrichment of 1.94.
VKRNRYKDILP [PTPN12_Y64_K61R] was tested, and the phosphorylation enrichment was 0.47.
LSIWPYLQKID [MFSD8_Y63_M58L] was tested, and the phosphorylation enrichment was 0.85.
FGPPQYNMQFS [ERBB2IP_Y977_I979M_YF] was tested, and the phosphorylation enrichment was 0.452.
With EGWQVYRLGAR [MISP_Y95] the phosphorylation enrichment was 0.607.
For HPHECYAKVFD [ALB_Y394_D389H], the phosphorylation enrichment was 0.845.
For SHNELYFEAAE [VANGL1_Y344_E347A_YF], the phosphorylation enrichment was 1.1.
VNKLVYENING [FRS2_Y306] showed a phosphorylation enrichment of 0.454.
Sequence KGLKVYVNGTL [ADGRD1_Y183_E178K] has a phosphorylation enrichment of 0.677.
Work on GSERDYTYDEL [EIF2S2_Y174_E177D] yielded a phosphorylation enrichment of 0.614.
For KINKMYSDRAM, the phosphorylation enrichment was 0.371.
In the case of SGSIHYSHVPR [GLB1_Y57_R59H], the phosphorylation enrichment is reported as 0.518.
Sequence SRDDFYETIAM [NPY1R_Y347_D346Y_YF] has a phosphorylation enrichment of 0.871.
FLENFYDLEKD [MMP3_Y42_K45E_YF] was tested, and the phosphorylation enrichment was 0.679.
In the case of TTPAVYARVAK [CTRB2_Y246], the phosphorylation enrichment is reported as 0.436.
RSRSPYSSRHS [CDK13_Y415] gave a phosphorylation enrichment of 0.489.
With YMRGMYFRMTD [PLA2G6_Y541_K545T] the phosphorylation enrichment was 0.908.

What follows are sequences tested against Fes (UniProt P07332) in the same assay as above.
Chain of Fes (P07332 whole entry, looked up): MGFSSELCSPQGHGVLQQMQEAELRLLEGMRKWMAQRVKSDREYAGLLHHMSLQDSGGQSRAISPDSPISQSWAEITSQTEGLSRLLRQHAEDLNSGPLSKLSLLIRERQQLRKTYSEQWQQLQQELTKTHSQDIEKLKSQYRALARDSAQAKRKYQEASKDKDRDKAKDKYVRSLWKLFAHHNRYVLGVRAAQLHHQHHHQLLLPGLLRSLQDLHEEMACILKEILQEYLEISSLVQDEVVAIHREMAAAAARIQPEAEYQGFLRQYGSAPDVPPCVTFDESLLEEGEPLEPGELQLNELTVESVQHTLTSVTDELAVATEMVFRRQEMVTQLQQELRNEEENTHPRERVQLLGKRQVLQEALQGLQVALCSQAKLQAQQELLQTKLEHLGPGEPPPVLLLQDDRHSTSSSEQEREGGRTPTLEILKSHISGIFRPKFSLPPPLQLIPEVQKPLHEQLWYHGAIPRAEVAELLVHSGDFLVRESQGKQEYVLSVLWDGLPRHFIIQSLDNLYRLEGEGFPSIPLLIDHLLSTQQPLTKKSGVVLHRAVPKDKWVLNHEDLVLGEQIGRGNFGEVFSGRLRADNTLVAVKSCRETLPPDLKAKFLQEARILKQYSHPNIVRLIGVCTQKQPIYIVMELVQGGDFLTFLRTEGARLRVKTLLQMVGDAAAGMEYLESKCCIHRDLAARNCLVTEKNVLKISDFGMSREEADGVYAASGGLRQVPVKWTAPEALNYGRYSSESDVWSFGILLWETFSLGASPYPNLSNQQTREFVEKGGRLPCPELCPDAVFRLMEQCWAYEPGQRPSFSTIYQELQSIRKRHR
For VTAALYGCLYE [BTD_Y536_R538C], the phosphorylation enrichment was 1.43.
FSKQIYKGMVA [PCDH15_Y931_R929Q] was tested, and the phosphorylation enrichment was 0.479.
QKPLDYYRVNL [GALE_Y104] was tested, and the phosphorylation enrichment was 1.27.
FDDGKYVFVVT [RPS6KA3_Y488_YF] showed a phosphorylation enrichment of 1.49.
NGQALYAACQT [XDH_Y1092_V1091L] showed a phosphorylation enrichment of 0.916.
For ISRASYYRKGG [ALK_Y1282_Y1278S], the phosphorylation enrichment was 0.701.
CTAIHYNFMCN [TP53_Y234_T231A_YF] was tested, and the phosphorylation enrichment was 0.909.
Sequence VGTKRYMAPEV [ACVRL1_Y375] has a phosphorylation enrichment of 0.61.
Work on RTLIRYANLGN [BEST1_Y131] yielded a phosphorylation enrichment of 1.14.
TVSTGYTQPQP [SARG_Y259_R258G] showed a phosphorylation enrichment of 0.64.
In the case of ATCKAYGQALA [TKT_Y321_R318C], the phosphorylation enrichment is reported as 0.73.
Work on TVSRPYSFIEF [SEC22B_Y110] yielded a phosphorylation enrichment of 1.12.
PQAVTYAKVKH [LILRB4_Y360] was tested, and the phosphorylation enrichment was 0.515.
RIVEIYSRRLR [GCH1_Y175_Q180R] showed a phosphorylation enrichment of 0.623.
DEEPPDRGPFC [SASH1_Y551_Y551D] was tested, and the phosphorylation enrichment was 1.14.
Work on LVMFISAIFGM [SCN1A_Y1684_Y1684S] yielded a phosphorylation enrichment of 2.05.
Work on ANNEYYFRVCA yielded a phosphorylation enrichment of 1.4.
Sequence VKRNRYKDILP [PTPN12_Y64_K61R] has a phosphorylation enrichment of 0.561.
Work on LSIWPYLQKID [MFSD8_Y63_M58L] yielded a phosphorylation enrichment of 1.37.
FGPPQYNMQFS [ERBB2IP_Y977_I979M_YF] was tested, and the phosphorylation enrichment was 0.679.
Sequence EGWQVYRLGAR [MISP_Y95] has a phosphorylation enrichment of 0.857.
HPHECYAKVFD [ALB_Y394_D389H] showed a phosphorylation enrichment of 1.36.
In the case of SHNELYFEAAE [VANGL1_Y344_E347A_YF], the phosphorylation enrichment is reported as 1.04.
VNKLVYENING [FRS2_Y306] was tested, and the phosphorylation enrichment was 0.8.
KGLKVYVNGTL [ADGRD1_Y183_E178K] gave a phosphorylation enrichment of 1.16.
In the case of GSERDYTYDEL [EIF2S2_Y174_E177D], the phosphorylation enrichment is reported as 1.01.
KINKMYSDRAM gave a phosphorylation enrichment of 0.624.
Sequence SGSIHYSHVPR [GLB1_Y57_R59H] has a phosphorylation enrichment of 0.79.
For SRDDFYETIAM [NPY1R_Y347_D346Y_YF], the phosphorylation enrichment was 1.21.
With FLENFYDLEKD [MMP3_Y42_K45E_YF] the phosphorylation enrichment was 1.34.
TTPAVYARVAK [CTRB2_Y246] showed a phosphorylation enrichment of 0.583.
With RSRSPYSSRHS [CDK13_Y415] the phosphorylation enrichment was 0.634.
In the case of YMRGMYFRMTD [PLA2G6_Y541_K545T], the phosphorylation enrichment is reported as 1.16.
